From patent US20230002496A1 (STAIDSON BEIJING BIOPHARMACEUTICALS, published 2023)
Substitutions are numbered along the chain they refer to. Read-outs that look alike come from different tables or passages of the source.

How the values were obtained:
[1] = biological target: T1, human GM-CSFRα, full length on cells (human, UniProt P15509 23-400); assay: cell-based or functional assay
T1 sequence: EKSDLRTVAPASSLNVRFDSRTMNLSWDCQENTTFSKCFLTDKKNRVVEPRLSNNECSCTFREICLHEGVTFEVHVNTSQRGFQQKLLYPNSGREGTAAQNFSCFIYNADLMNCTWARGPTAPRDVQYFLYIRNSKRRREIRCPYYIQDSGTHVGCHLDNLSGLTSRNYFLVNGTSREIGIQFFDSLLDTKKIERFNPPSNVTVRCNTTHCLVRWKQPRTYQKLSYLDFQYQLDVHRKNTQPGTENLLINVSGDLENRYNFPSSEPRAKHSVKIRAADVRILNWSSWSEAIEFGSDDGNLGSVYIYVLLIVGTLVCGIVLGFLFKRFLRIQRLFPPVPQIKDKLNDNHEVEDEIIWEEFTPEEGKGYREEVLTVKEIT

[2] = biological target: T1, human GM-CSFRα, full length on cells; assay: cell-based or functional assay; remark: listed apart in the source
[3] = biological target: T1, human GM-CSFRα, full length on cells; assay: cell-based or functional assay; remark: listed apart in the source
human GM-CSFRα-6His [4] = biological target: T2, human GM-CSFRα-6His (human, UniProt P15509 23-320); assay: SPR, Biacore T200, antibody (IgG4) on CM5 chip, GMRah as analyte
T2 construct: pTT5-GMRa-6his (ECD), made in 293F cells; also called GMRah; GMRa-6his(ECD)
T2 sequence: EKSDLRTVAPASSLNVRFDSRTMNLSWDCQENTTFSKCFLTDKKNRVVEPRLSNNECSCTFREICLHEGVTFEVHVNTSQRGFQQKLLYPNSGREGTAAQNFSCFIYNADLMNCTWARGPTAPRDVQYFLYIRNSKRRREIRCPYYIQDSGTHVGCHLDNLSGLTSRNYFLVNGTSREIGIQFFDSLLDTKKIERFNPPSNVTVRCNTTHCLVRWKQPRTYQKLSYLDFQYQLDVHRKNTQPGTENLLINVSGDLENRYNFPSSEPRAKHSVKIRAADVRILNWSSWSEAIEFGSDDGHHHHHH
Protocol: The affinities for GMRah at various concentrations were measured. […] The concentrations of 0.625 and 0 nM were repeated once. Using the SPR technology, the association and dissociation rates were measured, and binding affinity was determined.

[5] = biological target: T1, human GM-CSFRα, full length on cells; assay: cell-based or functional assay; remark: listed apart in the source
[6] = biological target: T3, cynomolgus monkey GM-CSFRα on granulocytes (cynomolgus monkey, UniProt A0A2K5UC70 23-393); assay: cell-based or functional assay
T3 sequence: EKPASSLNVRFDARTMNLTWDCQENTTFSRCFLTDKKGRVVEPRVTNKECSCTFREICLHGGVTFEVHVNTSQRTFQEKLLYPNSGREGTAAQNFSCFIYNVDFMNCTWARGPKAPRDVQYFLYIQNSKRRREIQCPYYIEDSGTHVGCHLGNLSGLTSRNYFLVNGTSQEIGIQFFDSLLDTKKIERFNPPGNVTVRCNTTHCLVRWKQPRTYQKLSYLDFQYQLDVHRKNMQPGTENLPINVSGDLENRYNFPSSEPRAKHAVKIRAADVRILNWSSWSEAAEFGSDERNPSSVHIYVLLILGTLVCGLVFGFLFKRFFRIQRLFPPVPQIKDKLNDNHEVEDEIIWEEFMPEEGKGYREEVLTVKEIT

[7] = biological target: T1, human GM-CSFRα, full length on cells; assay: cell-based or functional assay; remark: listed apart in the source
[8] = biological target: T1, human GM-CSFRα, full length on cells; assay: cell-based or functional assay; remark: listed apart in the source
[9] = biological target: T1, human GM-CSFRα, full length on cells; assay: cell-based or functional assay; remark: listed apart in the source
[10] = biological target: T1, human GM-CSFRα, full length on cells; assay: cell-based or functional assay; remark: listed apart in the source
human GM-CSFRα-6His [11] = biological target: T2, human GM-CSFRα-6His; assay: ELISA, antibodies as human IgG4, one bar for each protein; antibody concentration not shown
human GM-CSFRα-6His [12] = biological target: T2, human GM-CSFRα-6His; assay: competitive ELISA, title on the sheet 'Blocking GMRah binding to GM-CSF'; antibody (human IgG4) titrated; blocked ligand GM-CSF; x axis 'Log Ab concentration', no unit

Molecule Mab-IgG4 (Mavrilimumab) (antibody) has an IC50, CD11b expression on human peripheral blood cells [1] of 0.181 µg/mL, an IC50, IL-1β secretion by PBMC [1] of 0.0126 µg/mL and an IC50, TNFα secretion by PBMC (ELISA) [1] of 1.74 µg/mL. For the same molecule, the IC50, TNFα secretion by PBMC (Human Macrophage/Microglia Panel) [1] was 3.09 µg/mL.

B1: E35-IgG4 (antibody, V domains shown)
VH: QMQLVQSGAEVKKPGASVKVSCKVSGYTLTELSIHWVRQAPGKGLEWMGGFDPEDGETIYAQKFQGRVTMTGDTSTDTAYLELSSLRSEDTALYYCATGRYTSLATTYGFDYWGQGTLVTVSS
VL: EIVMTQSPATLSLSPGERATLSCRASQSVSSYLAWYQQKPGQAPRLLIYGASSRATGIPDRFSGSGSGTDFTLTISRLEPEDFAVYYCQQYDNWPYTFGQGTKLEIK
notes: human IgG4, human kappa; also called E35-IG4
For B1, the “IC50, CD11b expression on human peripheral blood cells” value [2] was 0.111 µg/mL, the “IC50, human granulocyte shape change” value [3] was 2.05 ng/mL and the Kd (human GM-CSFRα-6His [4]) was 8.9 pM. The koff (human GM-CSFRα-6His [4]) was 4.78e-05 s⁻¹, the kon (human GM-CSFRα-6His [4]) was 5.37e+06 M⁻¹ s⁻¹ and the “IC50, TNFα secretion by PBMC (ELISA)” value [5] was 0.329 µg/mL. The “IC50, cynomolgus monkey granulocyte shape change” value [6] was 2.53 ng/mL, the “IC50, IL-1β secretion by PBMC” value [7] was 3.54 ng/mL and the “IC50, human granulocyte survival” value [8] was 4.2 ng/mL. The “IC50, TNFα secretion by PBMC (Human Macrophage/Microglia Panel)” value [9] was 0.278 µg/mL and the “IC50, TF-1 cell proliferation” value [10] was 0.0474 µg/mL.

B2: E87-IgG4 (antibody, V domains shown)
VH: B1 VH with F64S, T102V, A105F, T106F, T107N
VL: B1 VL with D92N, Y96P
notes: human IgG4, human kappa
B2: binds (human GM-CSFRα-6His [11]).

B3: T119-IgG4 (antibody, V domains shown)
VH: B1 VH with Y27H, I59N, F64S, T102C, L104T, A105D, T107C
VL: B1 VL with D92N, Y96P
notes: human IgG4, human kappa; parent antibody
B3: binds (human GM-CSFRα-6His [12]).

B4: E200a-IgG4 (antibody, V domains shown)
VH: B1 VH with S33P, I34M, S103I, L104I, A105T, T107N
VL: B1 VL with Y96P
notes: human IgG4, human kappa
B4: binds (human GM-CSFRα-6His [12]).

B5: EII33-IgG4 (antibody, V domains shown)
VH: B1 VH with P53G, E54D, D55G, G56E, T106A
VL: B1 VL with D92R, Y96F
notes: human IgG4, human kappa
B5: binds (human GM-CSFRα-6His [12]).

B6: E108-IgG4 (antibody, V domains shown)
VH: B1 VH with Y27H, S103E, A105Y, T106Q, T107N
VL: B1 VL with D92N, Y96P
In the case of B6, the “IC50, human granulocyte shape change” value [3] is reported as 2.07 ng/mL and the “IC50, human granulocyte survival” value [8] is reported as 5.52 ng/mL.

B7: EII52-IgG4 (antibody, V domains shown)
VH: B1 VH with P53G, E54D, D55I, G56E
VL: B1 VL with D92A, W94P, Y96N
notes: human IgG4, human kappa
B7: binds (human GM-CSFRα-6His [12]).

B8: E87b-IgG4 (antibody, V domains shown)
VH: B1 VH with F64S, T102V, A105F, T106F, T107N
VL: B1 VL
notes: human IgG4, human kappa
B8 was tested, and the “IC50, CD11b expression on human peripheral blood cells” value [2] was 0.144 µg/mL, the “IC50, human granulocyte shape change” value [3] was 1.51 ng/mL and the Kd (human GM-CSFRα-6His [4]) was 6.75 pM. The koff (human GM-CSFRα-6His [4]) was 2.42e-05 s⁻¹, the kon (human GM-CSFRα-6His [4]) was 3.58e+06 M⁻¹ s⁻¹ and the “IC50, TNFα secretion by PBMC (ELISA)” value [5] was 0.0935 µg/mL. The “IC50, IL-1β secretion by PBMC” value [7] was 13.3 ng/mL, the “IC50, human granulocyte survival” value [8] was 2.53 ng/mL and the “IC50, TNFα secretion by PBMC (Human Macrophage/Microglia Panel)” value [9] was 0.0666 µg/mL.
